In patent publication US20180250335:

Columns and labels:
Assay in all cases: cell_activity
[1] = system: TALEN 2L3 (TAP1 exon 1 left arm) (synthetic construct); settings: as pair 2L3*2R1 in hESCs, puromycin selection; one or two alleles
[2] = system: TALEN 2R1 (TAP1 exon 1 right arm) (synthetic construct); settings: as pair 2L3*2R1 in hESCs, puromycin selection; SEQ 24 in the listing is printed reversed
[3] = system: TALEN 1L2 (TAPBP exon 2 left arm) (synthetic construct); settings: as pair 1L2*1R2 in hESCs, puromycin selection; one or two alleles
[4] = system: TALEN 1R2 (TAPBP exon 2 right arm) (synthetic construct); settings: as pair 1L2*1R2 in hESCs, puromycin selection; SEQ 28 in the listing is printed reversed

Sequence: TGAAGCCATTAGCTG (double strand) [TAP1 exon 1 left half-site]
- activity (% clones targeted) [1]: 27.1

Sequence: GGCAAGTCCCGGCAGGG (double strand) [TAP1 exon 1 right half-site]
- activity (% clones targeted) [2]: 27.1

Sequence: GATCGAGTGTTGGTT (double strand) [TAPBP exon 2 left half-site]
- activity (% clones targeted) [3]: 33.3

Sequence: CTCTTGGCCAGGCCCTTT (double strand) [TAPBP exon 2 right half-site]
- activity (% clones targeted) [4]: 33.3
